B1: MARS (protein, UniProt P56192 1-900, looked up)
Methionine--tRNA ligase, …: MRLFVSDGVPGCLPVLAAAGRARGRAEVLISTVGPEDCVVPFLTRPKVPVLQLDSGNYLFSTSAICRYFFLLSGWEQDDLTNQWLEWEATELQPALSAALYYLVVQGKKGEDVLGSVRRALTHIDHSLSRQNCPFLAGETESLADIVLWGALYPLLQDPAYLPEELSALHSWFQTLSTQEPCQRAAETVLKQQGVLALRPYLQKQPQPSPAEGRAVTNEPEEEELATLSEEEIAMAVTAWEKGLESLPPLRPQQNPVLPVAGERNVLITSALPYVNNVPHLGNIIGCVLSADVFARYSRLRQWNTLYLCGTDEYGTATETKALEEGLTPQEICDKYHIIHADIYRWFNISFDIFGRTTTPQQTKITQDIFQQLLKRGFVLQDTVEQLRCEHCARFLADRFVEGVCPFCGYEEARGDQCDKCGKLINAVELKKPQCKVCRSCPVVQSSQHLFLDLPKLEKRLEEWLGRTLPGSDWTPNAQFITRSWLRDGLKPRCITRDLKWGTPVPLEGFEDKVFYVWFDATIGYLSITANYTDQWERWWKNPEQVDLYQFMAKDNVPFHSLVFPCSALGAEDNYTLVSHLIATEYLNYEDGKFSKSRGVGVFGDMAQDTGIPADIWRFYLLYIRPEGQDSAFSWTDLLLKNNSELLNNLGNFINRAGMFVSKFFGGYVPEMVLTPDDQRLLAHVTLELQHYHQLLEKVRIRDALRSILTISRHGNQYIQVNEPWKRIKGSEADRQRAGTVTGLAVNIAALLSVMLQPYMPTVSATIQAQLQLPPPACSILLTNFLCTLPAGHQIGTVSPLFQKLENDQIESLRQRFGGGQAKTSPKPAVVETVTTAKPQQIQALMDEVTKQGNIVRELKAQKADKNEVAAEVAKLLDLKKQLAVAEGKPPEAPKGKKKK
B2: TRIP13 (protein, UniProt Q15645 1-432, looked up)
Pachytene checkpoint protein …: MDEAVGDLKQALPCVAESPTVHVEVHQRGSSTAKKEDINLSVRKLLNRHNIVFGDYTWTEFDEPFLTRNVQSVSIIDTELKVKDSQPIDLSACTVALHIFQLNEDGPSSENLEEETENIIAANHWVLPAAEFHGLWDSLVYDVEVKSHLLDYVMTTLLFSDKNVNSNLITWNRVVLLHGPPGTGKTSLCKALAQKLTIRLSSRYRYGQLIEINSHSLFSKWFSESGKLVTKMFQKIQDLIDDKDALVFVLIDEVESLTAARNACRAGTEPSDAIRVVNAVLTQIDQIKRHSNVVILTTSNITEKIDVAFVDRADIKQYIGPPSAAAIFKIYLSCLEELMKCQIIYPRQQLLTLRELEMIGFIENNVSKLSLLLNDISRKSEGLSGRVLRKLPFLAHALYVQAPTVTIEGFLQALSLAVDKQFEERKKLAAYI
B3: RBM14 (protein, UniProt Q96PK6 1-669, looked up)
RNA-binding protein 14: MKIFVGNVDGADTTPEELAALFAPYGTVMSCAVMKQFAFVHMRENAGALRAIEALHGHELRPGRALVVEMSRPRPLNTWKIFVGNVSAACTSQELRSLFERRGRVIECDVVKDYAFVHMEKEADAKAAIAQLNGKEVKGKRINVELSTKGQKKGPGLAVQSGDKTKKPGAGDTAFPGTGGFSATFDYQQAFGNSTGGFDGQARQPTPPFFGRDRSPLRRSPPRASYVAPLTAQPATYRAQPSVSLGAAYRAQPSASLGVGYRTQPMTAQAASYRAQPSVSLGAPYRGQLASPSSQSAAASSLGPYGGAQPSASALSSYGGQAAAASSLNSYGAQGSSLASYGNQPSSYGAQAASSYGVRAAASSYNTQGAASSLGSYGAQAASYGAQSAASSLAYGAQAASYNAQPSASYNAQSAPYAAQQAASYSSQPAAYVAQPATAAAYASQPAAYAAQATTPMAGSYGAQPVVQTQLNSYGAQASMGLSGSYGAQSAAAATGSYGAAAAYGAQPSATLAAPYRTQSSASLAASYAAQQHPQAAASYRGQPGNAYDGAGQPSAAYLSMSQGAVANANSTPPPYERTRLSPPRASYDDPYKKAVAMSKRYGSDRRLAELSDYRRLSESQLSFRRSPTKSSLDYRRLPDAHSDYARYSGSYNDYLRAAQMHSGYQRRM
B4: GNB2 (protein, UniProt P62879 2-340, looked up)
Guanine nucleotide-binding …: SELEQLRQEAEQLRNQIRDARKACGDSTLTQITAGLDPVGRIQMRTRRTLRGHLAKIYAMHWGTDSRLLVSASQDGKLIIWDSYTTNKVHAIPLRSSWVMTCAYAPSGNFVACGGLDNICSIYSLKTREGNVRVSRELPGHTGYLSCCRFLDDNQIITSSGDTTCALWDIETGQQTVGFAGHSGDVMSLSLAPDGRTFVSGACDASIKLWDVRDSMCRQTFIGHESDINAVAFFPNGYAFTTGSDDATCRLFDLRADQELLMYSHDNIICGITSVAFSRSGRLLLAGYDDFNCNIWDAMKGDRAGVLAGHDNRVSCLGVTDDGMAVATGSWDSFLKIWN
B5: TMOD3 (protein, UniProt Q9NYL9 1-352, looked up)
Tropomodulin-3: MALPFRKDLEKYKDLDEDELLGNLSETELKQLETVLDDLDPENALLPAGFRQKNQTSKSTTGPFDREHLLSYLEKEALEHKDREDYVPYTGEKKGKIFIPKQKPVQTFTEEKVSLDPELEEALTSASDTELCDLAAILGMHNLITNTKFCNIMGSSNGVDQEHFSNVVKGEKILPVFDEPPNPTNVEESLKRTKENDAHLVEVNLNNIKNIPIPTLKDFAKALETNTHVKCFSLAATRSNDPVATAFAEMLKVNKTLKSLNVESNFITGVGILALIDALRDNETLAELKIDNQRQQLGTAVELEMAKMLEENTNILKFGYQFTQQGPRTRAANAITKNNDLVRKRRVEGDHQ
B6: HNRNPA1;HNRNPA1L2 (protein, UniProt P09651 1-372, looked up)
Heterogeneous nuclear …: MSKSESPKEPEQLRKLFIGGLSFETTDESLRSHFEQWGTLTDCVVMRDPNTKRSRGFGFVTYATVEEVDAAMNARPHKVDGRVVEPKRAVSREDSQRPGAHLTVKKIFVGGIKEDTEEHHLRDYFEQYGKIEVIEIMTDRGSGKKRGFAFVTFDDHDSVDKIVIQKYHTVNGHNCEVRKALSKQEMASASSSQRGRSGSGNFGGGRGGGFGGNDNFGRGGNFSGRGGFGGSRGGGGYGGSGDGYNGFGNDGGYGGGGPGYSGGSRGYGSGGQGYGNQGSGYGGSGSYDSYNNGGGGGFGGGSGSNFGGGGSYNDFGNYNNQSSNFGPMKGGNFGGRSSGPYGGGGQYFAKPRNQGGYGGSSSSSSYGSGRRF

test system: GFP-14-3-3β and its binding proteins; test: GFP-14-3-3β co-IP with LC-MS/MS label-free quantification, untreated versus PP1c-treated; parameters: species or system human; conditions: pairwise comparison PP1 vs untreated

Molecule	Difference (log2), PP1 vs untreated [log2]
B1	-0.131
B2	-0.09713
B3	-0.1292
B4	-0.1195
B5	-0.1127
B6	-0.1001

test system: GFP-14-3-3β; test: GFP-14-3-3β co-IP with LC-MS/MS, untreated GFP-14-3-3β versus GFP control (14-3-3 interactome); type: binding, human; conditions: pairwise comparison untreated vs GFP

Molecule	Difference (log2), untreated vs GFP [log2]
B1	0.1917
B2	0.9602
B3	0.5797
B4	-1.0406
B5	0.4757
B6	0.6063

From paper PMC7367873, “Dissecting the sequence determinants for dephosphorylation by the catalytic subunits of phosphatases PP1 and PP2A” (Nature Communications, 2020)
